Experimental findings from patent US20030069395A1 (DYAX, published 2003) are described below.

The target of test [1] is T1, human serum albumin (HSA) (human, UniProt P02768 25-609).
T1 construct: also called caprylate-biotinylated-HSA
In words: fluorescence anisotropy; buffer not named in Table 2. For orientation: Fluorescence polarisation rises when a labelled molecule tumbles more slowly, as on binding a larger partner.

Test [2] concerns the target T1, human serum albumin (HSA). Briefly: fluorescence anisotropy, truncated peptides. As to the method: (§1) Affinity determinations were made by first labeling polypeptides on the C-terminal end with NHS-fluorescein. Fluorescence anisotropy measurements were performed in 384-well microplates in a volume of 10 μl in binding buffer using a Tecan Polarion fluorescence polarization plate reader. The concentration of fluorescein labeled peptide was held constant (20 nM), and the concentration of HSA was varied. For pH 6.2, 7.1, and 7.4 binding conditions, a 3 mM phosphate, 0.01% Tween-20 buffer was used. For pH 9.1 binding conditions, a 3 mM sodium bicarbonate buffer, 0.01% Tween-20 nonionic detergent buffer was used. Once NaCl was added to any of these buffers, their pH was adjusted again to achieve the original pH. The binding mixtures were equilibrated for 10 minutes in the microplate at 30° C. prior to performing the measurement. The observed change in anisotropy was fit to the equation below via nonlinear regression to obtain the apparent KD. This equation assumes that the peptide and HSA form a reversible complex with 1:1 stoichiometry.

The target in test [3] is T1, human serum albumin (HSA). In words: phage ELISA on caprylate-biotinylated HSA held on streptavidin wells; TN12/1 solution-capture selection.
In test [4] the target is T1, human serum albumin (HSA). In words: fluorescence anisotropy; pH 6.2, 0.14 M NaCl, no caprylate. How it is done: as §1
Test [5] concerns the target T1, human serum albumin (HSA). Briefly: fluorescence anisotropy; pH 9.1, 0.14 M NaCl (as the head marks it), no caprylate. How it is done: as §1
Test [6] addresses T1, human serum albumin (HSA). In words: fluorescence anisotropy; pH 7.4, 0.14 M NaCl, no caprylate. How it is done:
as §1

The target in test [7] is T1, human serum albumin (HSA). Briefly: fluorescence anisotropy; pH 7.4, 0.14 M NaCl, 0.1% caprylate. As to the method:
as §1
Once all the positive phage isolates were sequenced, peptides corresponding to the display peptide were synthesized. A small amount of constant phage sequence surrounding each varied amino acid sequence region was retained and either a -GGGK-NH₂ (SEQ ID NO: 24) amino acid sequence or -X-K-NH₂ C-terminal tail was added to each peptide, where X is 6-aminohexanoic acid and K-NH₂ is an amidated terminal lysine residue. The constant phage sequence was retained because these residues can often play a role in target binding. To determine its affinity for HSA , each peptide was labeled with fluorescein on the C-terminal lysine side chain.

For the next test, the target named is pig serum albumin (Pig, UniProt P08835 25-607). In words: fluorescence anisotropy; 3 mM phosphate, pH 6.2, 0 M NaCl.
For a further test, the target named is rabbit serum albumin (Rabbit, UniProt P49065 25-608). Described as above.
The target in test [8] is T2, chicken ovalbumin (Chicken, UniProt P01012 2-386).
T2 construct: Negative control; also called Chicken (egg)
T2 sequence (looked up): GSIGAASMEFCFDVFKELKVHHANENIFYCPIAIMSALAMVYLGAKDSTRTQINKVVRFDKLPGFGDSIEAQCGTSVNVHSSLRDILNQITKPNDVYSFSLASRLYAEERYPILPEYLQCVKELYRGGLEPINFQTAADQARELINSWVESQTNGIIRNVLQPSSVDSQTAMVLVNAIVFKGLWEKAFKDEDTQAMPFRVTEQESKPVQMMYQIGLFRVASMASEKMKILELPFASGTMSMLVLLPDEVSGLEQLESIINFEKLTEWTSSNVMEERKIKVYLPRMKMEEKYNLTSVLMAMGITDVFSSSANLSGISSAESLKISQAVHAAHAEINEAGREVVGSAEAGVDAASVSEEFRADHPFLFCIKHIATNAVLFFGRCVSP
Briefly: fluorescence anisotropy; 3 mM phosphate, pH 6.2, 0 M NaCl; negative control.

Test [9] concerns the target T2, chicken ovalbumin. In words: fluorescence anisotropy; PBS, pH 7.4, 0.14 M NaCl; negative control.
Test [10] addresses T1, human serum albumin (HSA). In words: fluoresceinated peptide; 3 mM phosphate buffer, pH 6.2, no salt. As to the method: as §1
(§2) Each of the polypeptides was fluoresceinated and tested for binding against an immobilized HSA target as described above.

Test [11] deals with T1, human serum albumin (HSA). In words: fluoresceinated peptide; PBS. How it is done: as §1, §2

Bridges are numbered along the chain shown (N, C = ends). Where no end group is shown, it is not given here. [ ]: non-standard residue; d: D form. fluorescein = fluorescein label; Ahx = NCCCCCC(=O)O A value given as a limit tells only on which side of the number the result lay.

rabbit serum albumin, sequence (P49065 25-608 limits assumed): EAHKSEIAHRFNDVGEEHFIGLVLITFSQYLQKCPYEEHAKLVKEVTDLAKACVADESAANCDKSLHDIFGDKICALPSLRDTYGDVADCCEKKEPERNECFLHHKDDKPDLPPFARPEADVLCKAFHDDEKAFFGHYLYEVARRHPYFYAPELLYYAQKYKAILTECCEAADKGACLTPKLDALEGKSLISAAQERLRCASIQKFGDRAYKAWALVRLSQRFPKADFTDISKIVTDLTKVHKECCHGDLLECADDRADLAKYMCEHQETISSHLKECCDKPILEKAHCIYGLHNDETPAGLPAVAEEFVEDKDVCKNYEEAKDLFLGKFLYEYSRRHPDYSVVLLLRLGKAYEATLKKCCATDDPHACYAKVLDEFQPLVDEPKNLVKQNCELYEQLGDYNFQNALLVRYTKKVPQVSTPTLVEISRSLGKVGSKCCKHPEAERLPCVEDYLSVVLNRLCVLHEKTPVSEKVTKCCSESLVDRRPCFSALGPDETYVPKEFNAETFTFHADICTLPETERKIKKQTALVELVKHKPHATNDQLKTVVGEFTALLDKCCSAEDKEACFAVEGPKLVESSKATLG
pig serum albumin, sequence (P08835 25-607 limits assumed): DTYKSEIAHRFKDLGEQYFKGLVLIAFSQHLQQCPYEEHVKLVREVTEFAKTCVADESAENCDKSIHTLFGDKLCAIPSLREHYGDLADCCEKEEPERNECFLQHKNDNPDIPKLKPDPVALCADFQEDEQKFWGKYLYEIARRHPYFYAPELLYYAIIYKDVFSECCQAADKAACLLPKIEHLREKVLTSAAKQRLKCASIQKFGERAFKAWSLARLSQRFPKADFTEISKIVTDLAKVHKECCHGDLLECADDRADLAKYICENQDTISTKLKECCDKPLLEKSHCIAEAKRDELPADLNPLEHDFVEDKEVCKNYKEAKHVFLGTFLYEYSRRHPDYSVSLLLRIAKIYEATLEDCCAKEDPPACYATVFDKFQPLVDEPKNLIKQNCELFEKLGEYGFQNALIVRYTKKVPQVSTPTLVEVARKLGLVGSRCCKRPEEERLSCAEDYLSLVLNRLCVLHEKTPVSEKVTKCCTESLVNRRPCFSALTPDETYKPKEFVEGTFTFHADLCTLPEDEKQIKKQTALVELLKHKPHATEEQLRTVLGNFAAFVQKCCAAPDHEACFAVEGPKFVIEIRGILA

B1: truncated peptide of DX-236, Ac-AEGTGDFWFCDRIAWYPQHLCGGGK-NH2 (peptide)
peptide: Ac-AEGTGDFWFCDRIAWYPQHLCGGGK(fluorescein)-NH2
modifications: not fully specified (bridges); printed as Ac-AEGTGDFWFCDRIAWYPQHLCGGGK-NH2; cysteine pairing not given here
Usually Kd stands for the equilibrium constant for the complex coming apart. B1: the Kd in test [1] was 8.9 µM. In addition, in test [2], the “fold increase in KD against DX-236 (SEQ ID NO: 19)” value was roughly 4 fold.

B2: truncated peptide of DX-236, Ac-FWFCDRIAWYPQHLCEFLDPEGGGK-NH2 (peptide)
peptide: Ac-FWFCDRIAWYPQHLCEFLDPEGGGK(fluorescein)-NH2
modifications: not fully specified (bridges); printed as Ac-FWFCDRIAWYPQHLCEFLDPEGGGK-NH2; cysteine pairing not given here
The molecule B2 yielded an equilibrium dissociation constant (Kd) in test [1] of 8.9 µM. Further, the “fold increase in KD against DX-236 (SEQ ID NO: 19)” value in test [2] is roughly 4 fold.

B3: phage isolate displaying DWDCVTRWANRDQQCWGP (SEQ ID NO: 247) (peptide)
chain: DWDCVTRWANRDQQCWGP
modifications: not fully specified (bridges); cysteine pairing not given here
notes: Whole phage in the ELISA; not shown: protein III of M13 phage; the display peptide stands at its amino terminus
Regarding B3, the binding result in test [3] is listed as “binds”.

As to Ac-AEGTGSFKICDQWFCLMPAPE[Ahx]K(fluorescein)-NH2 (disulfide 10-15) [DX-295, Ac-AEGTGSFKICDQWFCLMPAPE-X-K-NH2], the Kd in test [4] was greater than 100 µM. Ac-AEGTGSNHGCWHFSCIWDAPE[Ahx]K(fluorescein)-NH2 (disulfide 10-15) [DX-298, Ac-AEGTGSNHGCWHFSCIWDAPE-X-K-NH2]: the Kd in test [5] and in [4] was greater than 200 µM each time.

Ac-AEGTGDDWDCVTDWANRHQHCWALDPE[Ahx]K(fluorescein)-NH2 (disulfide 10-21) [DX-317, Ac-AEGTGDDWDCVTDWANRHQHCWALDPE-X-K-NH2] returned a Kd in [4] greater than 200 µM. For Ac-AEGTGDDWDCVTRWANRDQQCWGPDPE[Ahx]K(fluorescein)-NH2 (disulfide 10-21) [DX-313, Ac-AEGTGDDWDCVTRWANRDQQCWGPDPE-X-K-NH2], the dissociation constant (Kd) in test [5] was 90 µM; in [4], 80 µM; in [6] it was greater than 200 µM.

B4: DX-315, Ac-AEGTGDDWDCVTRWANRDQQCWALDPE-X-K-NH2 (peptide)
peptide: Ac-AEGTGDDWDCVTRWANRDQQCWALDPE[Ahx]K(fluorescein)-NH2
modifications: not fully specified (bridges); printed as Ac-AEGTGDDWDCVTRWANRDQQCWALDPE-X-K-NH2; cysteine pairing not given here
Take B4: the Kd in [7] was greater than 100 µM; in [4], greater than 200 µM. With Ac-AEGTGDFWFCDRIAWYPQHLCEFLDPEGGGK-NH2 (not fully specified; cysteine pairing not given here) [DX-236, Ac-AEGTGDFWFCDRIAWYPQHLCEFLDPEGGGK-NH2], the Kd is 0.5 µM with pig serum albumin, 0.5 µM in the test with rabbit serum albumin, greater than 200 µM with chicken ovalbumin [8] and greater than 200 µM in the test with chicken ovalbumin [9]. Take Ac-AEGTGDFWFCDRIAWYPAHLCEFLDPEGGGK-NH2 (cysteine pairing not given here; also: fluoresceinated, site not given here) [alanine mutant of DX-236, Ac-AEGTGDFWFCDRIAWYPAHLCEFLDPEGGGK-NH2]: in test [10], the Kd was 2.2 µM. Consider Ac-AEGTGAFWFCDRIAWYPQHLCEFLDPEGGGK-NH2 (cysteine pairing not given here; also: fluoresceinated, site not given here) [alanine mutant of DX-236, Ac-AEGTGAFWFCDRIAWYPQHLCEFLDPEGGGK-NH2], for which, in test [10], the Kd was determined as 5.1 µM.

B5: alanine mutant of DX-236, Ac-AEGTGDFWFCDRIAWYPQHACEFLDPEGGGK-NH2 (peptide)
peptide: Ac-AEGTGDFWFCDRIAWYPQHACEFLDPEGGGK-NH2
modifications: cysteine pairing not given here; also: fluorescein label, position not given here
For the molecule B5, the dissociation constant (Kd) in test [10] came to 2 µM. For Ac-AEGTGDFWFCARIAWYPQHLCEFLDPEGGGK-NH2 (cysteine pairing not given here; also: fluoresceinated, site not given here) [alanine mutant of DX-236, Ac-AEGTGDFWFCARIAWYPQHLCEFLDPEGGGK-NH2], binding in test [11] was characterised by a dissociation constant (Kd) of 5 µM. As for Ac-AEGTGDFAFCDRIAWYPQHLCEFLDPEGGGK-NH2 (cysteine pairing not given here; also: fluoresceinated, site not given here) [alanine mutant of DX-236, Ac-AEGTGDFAFCDRIAWYPQHLCEFLDPEGGGK-NH2], the Kd in test [10] is 2.3 µM. For Ac-AEGTGDFWFCDRIAWYAQHLCEFLDPEGGGK-NH2 (cysteine pairing not given here; also: fluoresceinated, site not given here) [alanine mutant of DX-236, Ac-AEGTGDFWFCDRIAWYAQHLCEFLDPEGGGK-NH2], in test [10], the Kd turned out to be 1.3 µM. Regarding Ac-AEGTGDFWFCDAIAWYPQHLCEFLDPEGGGK-NH2 (cysteine pairing not given here; also: fluoresceinated, site not given here) [alanine mutant of DX-236, Ac-AEGTGDFWFCDAIAWYPQHLCEFLDPEGGGK-NH2], in test [10], the Kd came out at 1.5 µM. Take Ac-AEGTGDFWFCDRIAWAPQHLCEFLDPEGGGK-NH2 (cysteine pairing not given here; also: fluoresceinated, site not given here) [alanine mutant of DX-236, Ac-AEGTGDFWFCDRIAWAPQHLCEFLDPEGGGK-NH2]: the Kd in test [10] was 1.4 µM. Same read-out and setting: the same measure for Ac-AEGTGDAWFCDRIAWYPQHLCEFLDPEGGGK-NH2 (cysteine pairing not given here; also: fluoresceinated, site not given here) [alanine mutant of DX-236, Ac-AEGTGDAWFCDRIAWYPQHLCEFLDPEGGGK-NH2]: 5.1 µM.

As for Ac-AEGTGDFWFCDRIAAYPQHLCEFLDPEGGGK-NH2 (cysteine pairing not given here; also: fluoresceinated, site not given here) [alanine mutant of DX-236, Ac-AEGTGDFWFCDRIAAYPQHLCEFLDPEGGGK-NH2], in [10], the Kd was 1.4 µM. Take Ac-AEGTGSWKVCDHFFCLSPAPE[Ahx]K(fluorescein)-NH2 (disulfide 10-15) [DX-297, Ac-AEGTGSWKVCDHFFCLSPAPE-X-K-NH2]: the equilibrium dissociation constant (Kd) in test [7], in [4] and in [6] was greater than 200 µM throughout. On to Ac-AEGTGSHVGCNNALCMQYAPE[Ahx]K(fluorescein)-NH2 (disulfide 10-15) [DX-296, Ac-AEGTGSHVGCNNALCMQYAPE-X-K-NH2], for which the Kd in test [7] was greater than 200 µM; in test [4] it was greater than 100 µM. As for Ac-AEGTGDDWQCVKDWANRRRGCMADDPE[Ahx]K(fluorescein)-NH2 (disulfide 10-21) [DX-319, Ac-AEGTGDDWQCVKDWANRRRGCMADDPE-X-K-NH2], the Kd in test [4] and in [6] was greater than 200 µM throughout.

B6: DX-232, Ac-AEGTGSVAWCTIFLCLDVAPEGGGK-NH2 (peptide)
peptide: Ac-AEGTGSVAWCTIFLCLDVAPEGGGK-NH2
modifications: not fully specified (bridges); printed as Ac-AEGTGSVAWCTIFLCLDVAPEGGGK-NH2; also: C-terminal Lys: fluorescein or coupled to NHS-Sepharose
notes: Putative disulfide between the two Cys
The molecule B6 yielded a Kd in test [4] of 0.5 µM.
